# B1: cytosolic leucine aminopeptidase from porcine kidney (Sigma) (protein)
# chain: TKGLVLGIYSKEKEDDAPQFTSAGENFDKLVSGKLREILNISGPPLKAGKTRTFYGLHEDFSSVVVVGLGKKGAGVDDQENWHEGKENIRAAVAAGCRQIQDLEIPSVEVDPCGDAQAAAEGAVLGLYEYDELKQKKKVVVSAKLHGSGDQEAWQRGVLFASGQNLARHLMETPANEMTPTRFAEVIEKNLKSASSKTDVHIRPKSWIEEQEMGSFLSVAKGSEEPPVFLEIHYKGSPDASDPPLVFVGKGITFDSGGISIKASANMDLMRADMGGAATICSTIVSAAKLDLPINLVGLAPLCENMPSGKANKPGDVVRAKNGKTIQVDNTDAEGRLILADALCYAHTFNPKVIINAATLTGAMDIALGSGATGVFTNSSWLWNKLFEASIETGDRVWRMPLFEHYTKQIVDCQLADVNNIGKYRSAGACTAAAFLKEFVTHPKWAHLDIAGVMTNKDEVPYLRKGMAGRPTRTLIEFLLRFSQDSA
# B2: recombinant ruLAP2 produced in P. pastoris (protein)
# chain: RLVGQEPFGWPFKPMVTQDDLQNKIKLKDIMAGVEKLQSFSDAHPEKNRVFGGNGHKDTVEWIYNEIKATGYYDVKKQEQVHLWSHAEAALNANGKDLKASAMSYSPPASKIMAELVVAKNNGCNATDYPANTQGKIVLVERGVCSFGEKSAQAGDAKAAGAIVYNNVPGSLAGTLGGLDKRHVPTAGLSQEDGKNLATLVASGKIDVTMNVISLFENRTTWNVIAETKGGDHNNVIMLGAHSDSVDAGPGINDNGSGSIGIMTVAKALTNFKLNNAVRFAWWTAEEFGLLGSTFYVNSLDDRELHKVKLYLNFDMIGSPNFANQIYDGDGSAYNMTGPAGSAEIEYLFEKFFDDQGIPHQPTAFTGRSDYSAFIKRNVPAGGLFTGAEVVKTPEQVKLFGGEAGVAYDKNYHRKGDTVANINKGAIFLNTRAIAYAIAEYARSLKGFPTRPKTGKRDVNPQYSKMPGGGCGHHTVFM
# B3: microsomal leucine aminopeptidase from porcine kidney (Sigma) (protein)
# chain: KPWNRYRLPTTLLPDSYNVTLRPYLTPNADGLYIFKGKSIVRLLCQEPTDVIIIHSKKLNYTTQGHMVVLRGVGDSQVPEIDRTELVELTEYLVVHLKGSLQPGHMYEMESEFQGELADDLAGFYRSEYMEGNVKKVLATTQMQSTDARKSFPCFDEPAMKATFNITLIHPNNLTALSNMPPKGSSTPLAEDPNWSVTEFETTPVMSTYLLAYIVSEFQSVNETAQNGVLIRIWARPNAIAEGHGMYALNVTGPILNFFANHYNTSYPLPKSDQIALPDFNAGAMENWGLVTYRENALLFDPQSSSISNKERVVTVIAHELAHQWFGNLVTLAWWNDLWLNEGFASYVEYLGADHAEPTWNLKDLIVPGDVYRVMAVDALASSHPLTTPAEEVNTPAQISEMFDSISYSKGASVIRMLSNFLTEDLFKEGLASYLHAFAYQNTTYLDLWEHLQKAVDAQTSIRLPDTVRAIMDRWTLQMGFPVITVDTKTGNISQKHFLLDSESNVTRSSAFDYLWIVPISSIKNGVMQDHYWLRDVSQAQNDLFKTASDDWVLLNVNVTGYFQVNYDEDNWRMIQHQLQTNLSVIPVINRAQVIYDSFNLATAHMVPVTLALDNTLFLNGEKEYMPWQAALSSLSYFSLMFDRSEVYGPMKKYLRKQVEPLFQHFETLTKNWTERPENLMDQYSEINAISTACSNGLPQCENLAKTLFDQWMSDPENNPIHPNLRSTIYCNAIAQGGQDQWDFAWGQLQQAQLVNEADKLRSALACSNEVWLLNRYLGYTLNPDLIRKQDATSTINSIASNVIGQPLAWDFVQSNWKKLFQDYGGGSFSFSNLIQGVTRRFSSEFELQQLEQFKKNNMDVGFGSGTRALEQALEKTKANIKWVKENKEVVLNWFIEHS
# Experiments:
# [1] = target: gliadin 33mer …; assay: cell-based or functional assay
# [2] = tested on: gliadin 33mer LQLQPFPQPQLPYPQPQLPYPQPQLPYPQPQPF
# [3] = target: T1, gliadin 33mer LQLQPFPQPQLPYPQPQLPYPQPQLPYPQPQPF
# T1 chain: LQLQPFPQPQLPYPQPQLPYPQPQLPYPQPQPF
# [4] = target: T2, gliadin 14mer PQPQLPYPQPQLPY
# T2 chain: PQPQLPYPQPQLPY
molecule,measurement,setting,value
Pronase,"digestion of the peptide over 20 h, E/S=1/25",[1],< 40%
Chymotrypsin,digestion of the peptide,[2],Chymotrypsin alone or supplemented with ruLAP or DPPIV is not able to breakdown the peptide
B1,"digestion of the peptide, RP-HPLC",[3],totally inactive towards the 33mer
B2,removal of the N-terminal residue; mass loss by ESI-MS,Ala-proNPY,the N-terminal alanine was almost totally removed (molecular mass loss of 71 amu) from proNPY
same,"digestion of the peptide, 37 C, 4 h, RP-HPLC and ESI-MS",[4],the 14mer is not digested with ruLAP2 within 4 h
same,removal of N-terminal residues; mass loss by ESI-MS,Gly-Ser-proNPY,cleavage of the two N-terminal residues Gly-Ser with a theoretical loss of 144.1 amu (found 144.2)
same,"degradation of the peptide within 4 h, RP-HPLC",[3],partial degradation (less than 50%) of the peptide within 4 h
B3,"digestion of the peptide, RP-HPLC and ESI-MS",[3],results only in a partial deletion of N-terminal Leu and C-terminal Phe (due to a carboxypeptidasic contaminant)

# Reference: US20050158298A1
